Patent US20200392251A1
Values belong to the binder of their own block, whether it stands above or below them.

Tests used:
[1] = biological target: human β-secretase 1 (BACE1), extracellular/catalytic domain (human) (UniProt P56817); assay: bio-layer interferometry (ForteBio), biotinylated protease on streptavidin biosensor, Fab in solution [panel B1A4]
[2] = biological target: human β-secretase 1 (BACE1), extracellular/catalytic domain (human) (UniProt P56817); assay: enzyme inhibition assay with FRET peptide substrate (M-2420), Fab titrated on BACE1 [panel B1A4]
[3] = biological target: human β-secretase 1 (BACE1), extracellular/catalytic domain (human) (UniProt P56817); assay: biolayer interferometry; biotinylated protease on streptavidin sensor, Fab in solution
[4] = biological target: human β-secretase 1 (BACE1), extracellular/catalytic domain (human) (UniProt P56817); assay: FRET peptide inhibition assay; KI=IC50/(S/Km+1)
[5] = biological target: human β-secretase 1 (BACE1), extracellular/catalytic domain (human) (UniProt P56817); assay: enzyme inhibition assay with FRET peptide substrate, IgG titrated on BACE1 [panel A]
[6] = biological target: human β-secretase 1 (BACE1), extracellular/catalytic domain (human) (UniProt P56817); assay: biolayer interferometry; IgG on protein A sensor, protease in solution
[7] = biological target: catalytic domain of MMP-9 (cdMMP-9) (UniProt P14780); assay: FRET peptide inhibition assay
[8] = biological target: catalytic domain of MMP-9 (cdMMP-9) (UniProt P14780); assay: bio-layer interferometry
[9] = biological target: catalytic domain of MMP-9 (cdMMP-9) (UniProt P14780); assay: bio-layer interferometry; reference cdMMP-12 wt
[10] = biological target: catalytic domain of MMP-9 (cdMMP-9) (UniProt P14780); assay: FRET peptide inhibition assay; reference cdMMP-12 mutant D4
[11] = biological target: human β-secretase 1 (BACE1), extracellular/catalytic domain (human) (UniProt P56817); assay: enzyme inhibition assay with FRET peptide substrate (M-2420), Fab titrated on BACE1 [panel B1B3]
[12] = biological target: human β-secretase 1 (BACE1), extracellular/catalytic domain (human) (UniProt P56817); assay: bio-layer interferometry (ForteBio), biotinylated protease on streptavidin biosensor, Fab in solution [panel B1B3]
[13] = biological target: human β-secretase 1 (BACE1), extracellular/catalytic domain (human) (UniProt P56817); assay: enzyme inhibition assay with FRET peptide substrate (M-2420), Fab titrated on BACE1 [panel B2B5]
[14] = biological target: human β-secretase 1 (BACE1), extracellular/catalytic domain (human) (UniProt P56817); assay: bio-layer interferometry (ForteBio), biotinylated protease on streptavidin biosensor, Fab in solution [panel B2B5]
[15] = biological target: human β-secretase 1 (BACE1), extracellular/catalytic domain (human) (UniProt P56817); assay: bio-layer interferometry (ForteBio), biotinylated protease on streptavidin biosensor, Fab in solution [panel B2B2]
[16] = biological target: human β-secretase 1 (BACE1), extracellular/catalytic domain (human) (UniProt P56817); assay: enzyme inhibition assay with FRET peptide substrate (M-2420), Fab titrated on BACE1 [panel B2B2]
[17] = biological target: human β-secretase 1 (BACE1), extracellular/catalytic domain (human) (UniProt P56817); assay: bio-layer interferometry (ForteBio), biotinylated protease on streptavidin biosensor, Fab in solution [panel B2B3]
[18] = biological target: human β-secretase 1 (BACE1), extracellular/catalytic domain (human) (UniProt P56817); assay: enzyme inhibition assay with FRET peptide substrate (M-2420), Fab titrated on BACE1 [panel B2B3]

Chain of human β-secretase 1 (BACE1), extracellular/catalytic domain (human) (P56817 46-457 limits assumed, form in doubt): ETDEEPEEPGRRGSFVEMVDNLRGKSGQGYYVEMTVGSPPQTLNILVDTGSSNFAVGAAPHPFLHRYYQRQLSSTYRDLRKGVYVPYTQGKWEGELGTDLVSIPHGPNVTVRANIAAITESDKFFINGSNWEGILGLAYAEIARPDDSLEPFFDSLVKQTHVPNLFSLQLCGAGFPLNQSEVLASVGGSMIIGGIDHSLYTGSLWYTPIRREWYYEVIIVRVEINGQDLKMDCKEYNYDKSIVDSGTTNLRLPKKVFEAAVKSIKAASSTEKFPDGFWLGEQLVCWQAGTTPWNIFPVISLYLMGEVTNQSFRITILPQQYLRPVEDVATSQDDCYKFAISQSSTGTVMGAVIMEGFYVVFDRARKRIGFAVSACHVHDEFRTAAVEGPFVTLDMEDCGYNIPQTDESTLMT

B1: anti-BACE1 Fab B1A4 (Fab, V domains shown)
VH: EVQLVESGGGLVQPGGSLRLSCAASGFNISYSSIHWVRQAPGKGLEWVAYISPSSSYTSYADSVKGRFTISADTSKNTAYLQMNSLRAEDTAVYYCARHYYVSVGSGIDYWGQGTLVTVSS
VL: DIQMTQSPSSLSASVGDRVTITCRASQSVSSAVAWYQQKPGKAPKLLIYSASSLYSGVPSRFSGSRSGTDFTPTISSLQPEDFATYYCQQASASPYALITFGQGTKVEIKR
koff [1]: 0.0086 s⁻¹
kon [1]: 420000 M⁻¹ s⁻¹
IC50 [2]: 52 nM
Kd [3]: 21 nM
Ki [4]: 41 nM

B2: anti-BACE1 IgG B1A4 (antibody, V domains shown)
VH: EVQLVESGGGLVQPGGSLRLSCAASGFNISYSSIHWVRQAPGKGLEWVAYISPSSSYTSYADSVKGRFTISADTSKNTAYLQMNSLRAEDTAVYYCARHYYVSVGSGIDYWGQGTLVTVSS
VL: DIQMTQSPSSLSASVGDRVTITCRASQSVSSAVAWYQQKPGKAPKLLIYSASSLYSGVPSRFSGSRSGTDFTPTISSLQPEDFATYYCQQASASPYALITFGQGTKVEIKR
IC50 [5]: 45 nM
Kd [6]: 16 nM
Ki [4]: 35 nM

B3: anti-MMP-12 Fab LH6 (Fab, V domains shown)
VH: EVQLVESGGGLVQPGGSLRLSCAASGFNLSYSYMHWVRQAPGKGLEWVASIYPSYGSTYYADSVKGRFTISADTSKNTAYLQMNSLRAEDTAVYYCARDLEESLPKRARTAVSKELESVPYVMDYWGQGTLVTVSS
VL: DIQMTQSPSSLSASVGDRVTITCRASQSVSSAVAWYQQKPGKAPKLLIYSASSLYSGVPSRFSGSRSGTDFTLTISSLQPEDFATYYCQQSSHYASPPITFGQGTKVEIKR
Ki [7]: 1500 nM
Kd [8]: 950 nM
fold (KD compared with cdMMP-12 wt) [9]: 2.2 fold
fold (KI compared with cdMMP-12 mutant D4) [10]: 16 fold

B4: anti-BACE1 Fab B1B3 (Fab, V domains shown)
VH: EVQLVESGGGLVQPGGSLRLSCAASGFNISYYSMHWVRQAPGKGLEWVASISPYYGSTYYADSVKGRFTISADTSKNTAYLQMNSLRAEDTAVYYCARERSSCPVGWRDSRFGADGYGLEYWGQGTLVTVSS
VL: DIQMTQSPSSLSASVGDRVTITCRASQSVSSAVAWYQQKPGKAPKLLIYSASSLYSGVPSRFSGSRSGTDFTLTISSLQPEDFATYYCQQSGHYHSLITFGQGTKVEIKR
IC50 [11]: 270 nM
koff [12]: 0.013 s⁻¹
kon [12]: 410000 M⁻¹ s⁻¹
Kd [3]: 31 nM
Ki [4]: 210 nM

B5: anti-MMP-12 Fab LG4 (Fab, V domains shown)
VH: EVQLVESGGGLVQPGGSLRLSCAASGFNLYYSYMHWVRQAPGKGLEWVASISSYYGYTSYADSVKGRFTISADTSKNTAYLQMNSLRAEDTAVYYCARSPIVYYELFMFIDMGAQGWKYGMDYWGQGTLVTVSS
VL: DIQMTQSPSSLSASVGDRVTITCRASQSVSSAVAWYQQKPGKAPKLLIYSASSLYSGVPSRFSGSRSGTDFTLTISSLQPEDFATYYCQQTFYPFTFGQGTKVEIKR
Kd [8]: 720 nM
fold (KD compared with cdMMP-12 wt) [9]: 10 fold

B9: anti-BACE1 Fab B2B3 (Fab, V domains shown)
VH: EVQLVESGGGLVQPGGSLRLSCAASGFNISYSSIHWVRQAPGKGLEWVAYISSYSSSTYYADSVKGRFTISADTSKNTAYLQMNSLRAEDTAVYYCARSASGIDYWGQGTLVTVSS
VL: DIQMTQSPSSLSASVGDRVTITCRASQSVSSAVAWYQQKPGKAPKLLIYSASSLYSGVPSRFSGSRSGTDFTLTISSLQPEDFATYYCQQSGYAPFTFGQGTKVEIKR
koff [17]: 0.0097 s⁻¹
kon [17]: 93000 M⁻¹ s⁻¹
Kd [3]: 100 nM
Ki [4]: 100 nM
IC50 [18]: 130 nM

The next lines start with the values.

IC50 [13]: 97 nM
koff [14]: 0.024 s⁻¹
kon [14]: 180000 M⁻¹ s⁻¹
Kd [3]: 130 nM
Ki [4]: 77 nM
B6: anti-BACE1 Fab B2B5 (Fab, V domains shown)
VH: EVQLVESGGGLVQPGGSLRLSCAASGFNIYYSYMHWVRQAPGKGLEWVASIYPYYGSTYYADSVKGRFTISADTSKNTAYLQMNSLRAEDTAVYYCARWHGYPPGYSYYSSFSSSGFDYWGQGTLVTVSS
VL: DIQMTQSPSSLSASVGDRVTITCRASQSVSSAVAWYQQKPGKAPKLLIYSASSLYSGVPSRFSGSRSGTDFTPTISSLQPEDFATYYCQQSYFSYPITFGQGTKVEIKR

Ki [7]: 6200 nM
Kd [8]: 740 nM
fold (KD compared with cdMMP-12 wt) [9]: 9.9 fold
fold (KI compared with cdMMP-12 mutant D4) [10]: 83 fold
B7: anti-MMP-12 Fab LH11 (Fab, V domains shown)
VH: EVQLVESGGGLVQPGGSLRLSCAASGFNLSYYSMHWVRQAPGKGLEWVAYIYPYYGSTYYADSVKGRFTISADTSKNTAYLQMNSLRAEDTAVYYCARFLLSIGKLFVGDGSILHVWL
VL: DIQMTQSPSSLSASVGDRVTITCRASQSVSSAVAWYQQKPGKAPKLLIYSASSLYSGVPSRFSGSRSGTDFTLTISSLQPEDFATYYCQQAYYGYLFTFGQGTKVEIKR

koff [15]: 0.0091 s⁻¹
kon [15]: 180000 M⁻¹ s⁻¹
IC50 [16]: 110 nM
Kd [3]: 52 nM
Ki [4]: 87 nM
B8: anti-BACE1 Fab B2B2 (Fab, V domains shown)
VH: EVQLVESGGGLVQPGGSLRLSCAASGFNISSYYMHWVRQAPGKGLEWVASIYSSYGYTYYADSVKGRFTISADTSKNTAYLQMNSLRAEDTAVYYCARYWGYYAWFGSHPWAYGAFDYWGQGTLVTVSS
VL: DIQMTQSPSSLSASVGDRVTITCRASQSVSSAVAWYQQKPGKAPKLLIYSASSLYSGVPSRFSGSRSGTDFTLTISSLQPEDFATYYCQQYGYYLITFGQGTKVEIKR
